Experiments:
[1] = biological target: T1, GI.7 norovirus virus-like particles (norovirus GI.7 (strain )); test: SPR; kinetic fit; VLPs captured by mAb 3912
[2] = biological target: T2, GI.1 norovirus (Norwalk virus) virus-like particles (Norwalk virus (norovirus GI.1), UniProt Q83884 1-530); test: SPR; kinetic fit; VLPs captured by mAb 3912
T2 chain: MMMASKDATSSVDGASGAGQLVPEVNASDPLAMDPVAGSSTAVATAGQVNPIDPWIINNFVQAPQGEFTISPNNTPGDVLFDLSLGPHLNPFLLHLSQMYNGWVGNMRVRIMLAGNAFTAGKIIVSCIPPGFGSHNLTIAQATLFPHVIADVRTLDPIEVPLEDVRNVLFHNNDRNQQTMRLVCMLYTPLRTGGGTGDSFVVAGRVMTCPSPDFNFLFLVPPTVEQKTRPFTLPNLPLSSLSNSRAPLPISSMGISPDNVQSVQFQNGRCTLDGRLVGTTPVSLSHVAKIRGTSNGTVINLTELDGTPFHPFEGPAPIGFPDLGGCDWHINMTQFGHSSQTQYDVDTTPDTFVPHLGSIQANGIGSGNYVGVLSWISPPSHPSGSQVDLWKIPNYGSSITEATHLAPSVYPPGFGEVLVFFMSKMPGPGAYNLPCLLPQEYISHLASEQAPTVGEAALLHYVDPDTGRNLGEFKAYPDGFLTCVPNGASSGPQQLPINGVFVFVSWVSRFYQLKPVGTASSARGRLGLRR

[3] = biological target: T1, GI.7 norovirus virus-like particles; test: SPR; VLPs captured by mAb 3912
[4] = biological target: T2, GI.1 norovirus (Norwalk virus) …; test: SPR; VLPs captured by mAb 3912

B1: Purified NJT-R3-A3 scFv soluble protein (scFv, V domains shown)
VH: EVQLLESGGGLVQPGGSLRLSCAASGFTFSSYAMSWVRQAPGKGLEWVSSIPRPGLHTSYADSVKGRFTISRDNSKNTLYLQMNSLRAEDTAVYYCAKHLRTFDYWGQGTLVTVSS
VL: DIQMTQSPSSLSASVGDRVTITCRASQSISSYLNWYQQKPGKAPKLLIYGASRLQSGVPSRFSGSGSGTDFTLTISSLQPEDFATYYCQQLPAVPITFGQGTKVEIK
B1 was tested, and the Ka [1] was 2.02e+07 M⁻¹, the Ka [2] was 3.69e+07 M⁻¹ and the koff [3] was 0.00224 s⁻¹. It also gave a koff [4] of 0.00149 s⁻¹.

Reference: PMC5240998 (2017)
